The values that follow are results of earlier work, collected in paper PMC13371949 (Journal of peptide science : an official publication of the …, 2025).

The conditions of data set [1]: previous work.

For glucagon [glucagon control], the isoelectric point entry is “near neutral”. Further, the “solubility at pH 7” value (pH 7) was “limited solubility”. Besides, the “time to fibril formation in solution” value in data set [1] was ~ 11 hours.
